Laboratory results: US20110021548A1, “INHIBITORS OF MALT1 PROTEOLYTIC ACTIVITY AND USES THEREOF” (priority 2007, published 2011)
“Also recorded” adds a separate entry of the source. code Z = not defined here

T1: MALT1 (Homo sapiens, UniProt Q9UDY8)
T1 construct: made in house
T1 sequence (Q9UDY8 2-824): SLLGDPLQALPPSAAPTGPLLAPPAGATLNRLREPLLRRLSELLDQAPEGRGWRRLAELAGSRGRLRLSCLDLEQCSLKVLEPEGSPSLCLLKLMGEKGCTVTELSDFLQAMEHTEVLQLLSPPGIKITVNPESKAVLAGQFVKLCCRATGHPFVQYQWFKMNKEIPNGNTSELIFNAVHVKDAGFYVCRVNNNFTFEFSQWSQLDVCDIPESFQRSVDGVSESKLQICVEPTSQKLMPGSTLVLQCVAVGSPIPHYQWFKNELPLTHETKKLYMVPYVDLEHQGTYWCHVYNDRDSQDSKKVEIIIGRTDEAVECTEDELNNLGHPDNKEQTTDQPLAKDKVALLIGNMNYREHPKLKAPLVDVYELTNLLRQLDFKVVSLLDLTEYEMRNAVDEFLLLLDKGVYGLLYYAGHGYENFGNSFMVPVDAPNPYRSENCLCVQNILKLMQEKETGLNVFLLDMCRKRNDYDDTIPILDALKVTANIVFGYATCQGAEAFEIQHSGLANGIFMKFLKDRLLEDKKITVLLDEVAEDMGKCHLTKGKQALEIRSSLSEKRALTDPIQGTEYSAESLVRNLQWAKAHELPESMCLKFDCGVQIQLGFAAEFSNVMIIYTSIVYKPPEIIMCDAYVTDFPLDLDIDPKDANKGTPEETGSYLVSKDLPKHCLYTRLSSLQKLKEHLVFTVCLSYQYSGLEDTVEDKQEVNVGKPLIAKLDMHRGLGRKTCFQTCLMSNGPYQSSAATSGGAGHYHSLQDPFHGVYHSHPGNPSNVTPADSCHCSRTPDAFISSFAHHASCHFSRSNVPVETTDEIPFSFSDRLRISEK

T2: MALT1 (Homo sapiens, UniProt Q9UDY8)
T2 construct: made in house
T2 sequence (Q9UDY8 334-824): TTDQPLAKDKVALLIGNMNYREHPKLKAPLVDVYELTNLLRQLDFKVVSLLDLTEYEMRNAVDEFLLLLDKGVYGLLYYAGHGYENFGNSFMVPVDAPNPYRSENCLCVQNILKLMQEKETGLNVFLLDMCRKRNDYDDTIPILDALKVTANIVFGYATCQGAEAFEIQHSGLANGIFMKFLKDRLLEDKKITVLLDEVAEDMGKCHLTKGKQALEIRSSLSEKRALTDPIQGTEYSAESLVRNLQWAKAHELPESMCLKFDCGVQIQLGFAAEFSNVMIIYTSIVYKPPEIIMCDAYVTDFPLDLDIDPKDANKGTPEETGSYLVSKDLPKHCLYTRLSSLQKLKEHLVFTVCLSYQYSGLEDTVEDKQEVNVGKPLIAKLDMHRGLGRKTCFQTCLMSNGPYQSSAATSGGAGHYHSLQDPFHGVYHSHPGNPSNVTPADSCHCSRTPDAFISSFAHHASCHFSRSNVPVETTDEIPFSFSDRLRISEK


How the values were obtained:
Assay in all cases: MALT1 paracaspase assay (Ac-LSSR-AMC cleavage, AMC release)
MALT1 [1] = target: T1, MALT1; format: biochemical; details: bio-IP purified MALT1 from HEK-293T cells; substrate 100 μM; inhibitor 100 μM (equimolar)
MALT1 [2] = target: T2, MALT1; format: biochemical; details: recombinant MALT1 p20 fragment; substrate 100 μM; inhibitor 100 μM
MALT1 [3] = format: biochemical, human; details: for Inhibition of the MALT1 paracaspase activity by A. thaliana serpin: FIG. 11, several serpin concentrations

Molecule	Inhibition of Ac-LSSR-AMC cleavage by bio-IP purified MALT1 (MALT1 [1])	Inhibition of Ac-LSSR-AMC cleavage by recombinant MALT1 (MALT1 [2])	Inhibition of the malt paracaspase activity in small compound screening (MALT1 [3]; FIG. 12, different concentrations)	Inhibition of the MALT1 paracaspase activity by A. thaliana serpin (MALT1 [3])
Z-GASR-CHO: peptide derivate (tetrapeptide GASR, SEQ ID NO:2), inhibitor of MALT1 proteolytic activity ({code Z}-GASR-aldehyde; reading uncertain; also: printed as Z-GASR-CHO)	efficiently blocked	completely blocked		
Z-LSSR-CHO: peptide derivate (tetrapeptide LSSR, SEQ ID NO:1), inhibitor of MALT1 proteolytic activity, purchased from Anaspec ({code Z}-LSSR-aldehyde; reading uncertain; also: printed as Z-LSSR-CHO)	inhibits MALT1 proteolytic activity; also recorded: efficiently blocked	completely blocked		
Cc1ccc(-c2ccc(C=C3C(=O)NC(=S)NC3=O)o2)cc1Cl [Inh03, 5-{[5-(3-chloro-4-methylphenyl)-2-furyl]methylene}-2-thioxodihydro-4,6(1H,5H)-pyrimidinedione]			Inhibitory effect	
A. thaliana serpin (AT1g47710): Arabidopsis thaliana serpin (AT1g47710), indicated as serpin-wt (protein) MDVRESISLQNQVSMNLAKHVITTVSQNSNVIFSPASINVVLSIIAAGSAGATKDQILSFLKFSSTDQLNSFSSEIVSAVLADGSANGGPKLSVANGAWIDKSLSFKPSFKQLLEDSYKAASNQADFQSKAVEVIAEVNSWAEKETNGLITEVLPEGSADSMTKLIFANALYFKGTWNEKFDESLTQEGEFHLLDGNKVTAPFMTSKKKQYVSAYDGFKVLGLPYLQGQDKRQFSMYFYLPDANNGLSDLLDKIVSTPGFLDNHIPRRQVKVREFKIPKFKFSFGFDASNVLKGLGLTSPFSGEEGLTEMVESPEMGKNLCVSNIFHKACIEVNEEGTEAAAASAGVIKLRGLLMEEDEIDFVADHPFLLVVTENITGVVLFIGQVVDPLH				possible, but only at relatively high concentrations
IKLA-mutant: mutant serpin in which the reactive center loop has been replaced by the sequence IKLA (SEQ ID NO:16) (protein) MDVRESISLQNQVSMNLAKHVITTVSQNSNVIFSPASINVVLSIIAAGSAGATKDQILSFLKFSSTDQLNSFSSEIVSAVLADGSANGGPKLSVANGAWIDKSLSFKPSFKQLLEDSYKAASNQADFQSKAVEVIAEVNSWAEKETNGLITEVLPEGSADSMTKLIFANALYFKGTWNEKFDESLTQEGEFHLLDGNKVTAPFMTSKKKQYVSAYDGFKVLGLPYLQGQDKRQFSMYFYLPDANNGLSDLLDKIVSTPGFLDNHIPRRQVKVREFKIPKFKFSFGFDASNVLKGLGLTSPFSGEEGLTEMVESPEMGKNLCVSNIFHKACIEVNEEGTEAAAASAGVIKLAGLLMEEDEIDFVADHPFLLVVTENITGVVLFIGQVVDPLH				performing better than wild type serpin at higher concentrations
